Test results reported in the supplement of paper PMC7877785.
± gives the uncertainty stated by the source.

Assay: self-splicing fitness, log relative to wild type (ln ratio); higher = more splicing; Tetrahymena group I intron in knt gene, E. coli kanamycin selection, DiMSum; sequences stand for … in CUCUCU…GGAGGGAAAAGUUAUCAGGCAUGCACCUGGUAGCUAGUCUUUAAACCAAUAGAUUGCAUCGGUUUAAAAGGCAAGACCGUCAAAUUGCGGGAAAGGGGUCAACAGCCGUUCAGUACCAAGUCUCAGGGGAAACUUUGAGAUGGCCUUGCAAAGGGUAUGGUAAUAAGCUGACGGACAUGGUCCUAACCACGCAGCCAAGUCCUAAGUCAACAGAUCUUCUGUUGAUAUGGAUGCAGUUCACAGACUAAAUGUCGGUCGGGGAAGAUGUAUUCUUCUCAUAAGAUAUAGUCGGACCUCUCCUUAAUGGGAGCUAGCGGAUGAAGUGAUGCAACACUGGAGCCGCUGGGAACUAAUUUGUAUGCGAAAGUAUAUUGAUUAGUUUUGGAGUACUCGUGGUCG
Summary of the method: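 Fitness was computed with DiMSum as the error-weighted combination of replicate fold changes, kanamycin versus none, each normalised to wild type. The library randomised all eight intron nucleotides of the P1ex region, with the intron placed in the knt kanamycin-resistance gene on pET-22b(+) in E. coli BL21(DE3). Six replicate transformations were grown overnight at 37°C or 30°C on LB agar with or without 25 μg/mL kanamycin, plus 100 μg/mL carbenicillin, 50 μM IPTG and 0.2% rhamnose. Pooled colonies were amplicon-sequenced on an Illumina HiSeq 2500.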

Sequence | self-splicing fitness (ln) (30 °C) | self-splicing fitness (ln) (37 °C)
UUCUAGCAAUAUUACGCUUA | -1.24 ± 0.12 | -0.839 ± 0.14
UGUGAGCAAUAUUACGGAAU | -3.76 ± 0.32 | -2.04 ± 0.23
UUUAAGCAAUAUUACGGUGC | -3.88 ± 0.46 | -2.01 ± 0.47
CAAGAGCAAUAUUACGGGUG | -1.74 ± 0.078 | -1.17 ± 0.1
CAUAAGCAAUAUUACGAUCG | -0.428 ± 0.1 | -0.532 ± 0.11
CUGGAGCAAUAUUACGGGGG | -2.27 ± 0.26 | -1.89 ± 0.4
GAUUAGCAAUAUUACGUGCU | -2.46 ± 0.18 | -1.26 ± 0.14
UGAUAGCAAUAUUACGUAGA | -2.3 ± 0.15 | -0.984 ± 0.17
CACUAGCAAUAUUACGGCGG | -0.21 ± 0.079 | -0.0455 ± 0.092
CACAAGCAAUAUUACGCGGC | -3.25 ± 0.19 | -2.98 ± 0.23
GAUGAGCAAUAUUACGAAGA | -3.25 ± 0.17 | -0.937 ± 0.14
CGCUAGCAAUAUUACGCUCG | -1.72 ± 0.22 | -1.02 ± 0.4
ACAAAGCAAUAUUACGAACG | -1.1 ± 0.084 | 0.144 ± 0.093
AUAAAGCAAUAUUACGAACA | 0.281 ± 0.085 | 0.425 ± 0.11
CGACAGCAAUAUUACGGCUU | -3.12 ± 0.16 | -1.6 ± 0.14
GCCUAGCAAUAUUACGCUGA | -1.69 ± 0.074 | -0.266 ± 0.079
AUUAAGCAAUAUUACGCUGG | -1.25 ± 0.12 | -1.39 ± 0.22
UAAUAGCAAUAUUACGGUUU | -2.92 ± 0.19 | -1.39 ± 0.18
CGCGAGCAAUAUUACGGGAC | -3.07 ± 0.25 | -2.43 ± 0.45
CAAGAGCAAUAUUACGGUAU | -4.27 ± 0.22 | -2.63 ± 0.21
CCUGAGCAAUAUUACGCACG | -3.16 ± 0.47 | -2.09 ± 0.37
UCCAAGCAAUAUUACGUAUC | -4.43 ± 0.27 | -1.93 ± 0.16
GGCGAGCAAUAUUACGGGUU | -2.52 ± 0.15 | -1.32 ± 0.13
CCUUAGCAAUAUUACGUAUC | -4.15 ± 0.27 | -2.17 ± 0.26
CCGCAGCAAUAUUACGCCGC | -4.21 ± 0.29 | -2.93 ± 0.48
AGCCAGCAAUAUUACGUCAC | – | -2.15 ± 0.44

Sequence | self-splicing fitness (ln) (30 °C) | self-splicing fitness (ln) (37 °C)
CGUAAGCAAUAUUACGAUGU | – | -1.57 ± 0.16
CUUAAGCAAUAUUACGCGGU | -2.59 ± 0.14 | -2.35 ± 0.22
ACACAGCAAUAUUACGACCU | -0.472 ± 0.069 | 0.384 ± 0.092
CCGCAGCAAUAUUACGACAU | -3.899 ± 0.024 | -2.94 ± 0.039
UGGAAGCAAUAUUACGAAAU | -3.52 ± 0.29 | -2.27 ± 0.22
GUUGAGCAAUAUUACGGGAG | – | -2.9 ± 0.38
AGUAAGCAAUAUUACGUGCC | -0.0863 ± 0.11 | -0.612 ± 0.16
CGGAAGCAAUAUUACGCGAA | -2.86 ± 0.27 | -1.46 ± 0.32
UUUUAGCAAUAUUACGCUUA | -1.1 ± 0.16 | -0.69 ± 0.15
GGCGAGCAAUAUUACGUUCA | -0.77 ± 0.1 | 0.0965 ± 0.13
CCGUAGCAAUAUUACGCAAG | -2.09 ± 0.18 | -1.46 ± 0.18
GGGCAGCAAUAUUACGGAUG | -3.41 ± 0.26 | -2.81 ± 0.34
ACUUAGCAAUAUUACGGAAU | -2.99 ± 0.17 | -2.13 ± 0.2
ACGUAGCAAUAUUACGGUGU | -2.43 ± 0.11 | -1.81 ± 0.14
CUCUAGCAAUAUUACGGAAU | -3.43 ± 0.26 | -3.25 ± 0.3
ACAGAGCAAUAUUACGUCAU | -3.71 ± 0.17 | -2.75 ± 0.27
UCGUAGCAAUAUUACGAUGG | -1.88 ± 0.12 | -1.07 ± 0.14
GUAUAGCAAUAUUACGUUUC | -3.37 ± 0.25 | -2.36 ± 0.33
AAAAAGCAAUAUUACGUAAU | -1.4 ± 0.063 | -0.916 ± 0.085
GCUCAGCAAUAUUACGUUGC | -1.99 ± 0.17 | -1.27 ± 0.16
CAAGAGCAAUAUUACGGCGA | -3.9 ± 0.28 | -3.24 ± 0.18
CGCUAGCAAUAUUACGGCUC | -1.15 ± 0.16 | -0.2 ± 0.19
CGUCAGCAAUAUUACGUGGG | -2.31 ± 0.093 | -1.7 ± 0.1
UCACAGCAAUAUUACGUUGC | -4.42 ± 0.23 | -2.95 ± 0.23
AGAGAGCAAUAUUACGACGA | – | -1.61 ± 0.29
GAUUAGCAAUAUUACGCAGG | – | -0.28 ± 0.27

Sequence | self-splicing fitness (ln) (30 °C) | self-splicing fitness (ln) (37 °C)
CUUUAGCAAUAUUACGAGUU | – | -2.96 ± 0.4
GAUUAGCAAUAUUACGAUGG | -3.28 ± 0.15 | -1.17 ± 0.12
CACAAGCAAUAUUACGGUCG | 0.139 ± 0.054 | 0.219 ± 0.064
AAAGAGCAAUAUUACGAGCA | -2.83 ± 0.39 | -2.26 ± 0.42
GCUAAGCAAUAUUACGAUUA | -1.63 ± 0.22 | -0.39 ± 0.18
CAUGAGCAAUAUUACGAGUG | -2.67 ± 0.13 | -3 ± 0.21
UUCUAGCAAUAUUACGAUUC | -1.98 ± 0.34 | -2.5 ± 0.49
UGUGAGCAAUAUUACGUGUA | -1.49 ± 0.29 | -1.46 ± 0.28
CUUGAGCAAUAUUACGGUUU | -2.68 ± 0.16 | -2.66 ± 0.29
CAGCAGCAAUAUUACGGACA | -2.86 ± 0.17 | -2.28 ± 0.17
AACCAGCAAUAUUACGAGGC | -3.43 ± 0.23 | -2.2 ± 0.18
UUAAAGCAAUAUUACGGUAC | -2.58 ± 0.22 | -1.06 ± 0.22
GAGAAGCAAUAUUACGUAAC | -1.62 ± 0.11 | -0.536 ± 0.12
AAGUAGCAAUAUUACGUUCC | -1.67 ± 0.16 | -0.678 ± 0.16
GCUUAGCAAUAUUACGCGAC | -3.07 ± 0.29 | -1.73 ± 0.2
GUUAAGCAAUAUUACGGUGA | -1.86 ± 0.15 | -1.09 ± 0.12
AGUGAGCAAUAUUACGGAAG | -2.58 ± 0.25 | –
UCCGAGCAAUAUUACGUGAC | -4.99 ± 0.41 | -2.66 ± 0.29
UCUCAGCAAUAUUACGUAUG | -2.86 ± 0.42 | -2.79 ± 0.38
GAGCAGCAAUAUUACGCCUG | -2.2 ± 0.19 | -2.32 ± 0.42
UCCCAGCAAUAUUACGCCAA | -2.7 ± 0.33 | -1.63 ± 0.3
CUAAAGCAAUAUUACGGUAC | – | -2.35 ± 0.25
GCAUAGCAAUAUUACGUAGC | -4.39 ± 0.26 | -2.15 ± 0.16
GAUUAGCAAUAUUACGUCGA | -1.83 ± 0.12 | -0.819 ± 0.11
CAGCAGCAAUAUUACGUUUC | -3.76 ± 0.17 | -2.53 ± 0.2
